According to PMC6017673, “Functional Characterization of the Saccharomyces cerevisiae Equilibrative Nucleoside Transporter 1 (ScENT1)” (Molecules : A Journal of Synthetic Chemistry and Natural …, 2018):
Residue numbers refer to the chain shown, from its start. In names and notes the source's numbering stands.

How the values were obtained:
Test in all cases: purified protein
[1] = substrate: Nc1ccn([C@@H]2O[C@H](CO)[C@@H](O)[C@H]2O)c(=O)n1; details: labelled compound; purified transporter in proteoliposomes
[2] = substrate: O=c1ccn([C@@H]2O[C@H](CO)[C@@H](O)[C@H]2O)c(=O)[nH]1; format: biochemical, Saccharomyces cerevisiae; details: labelled compound; purified transporter in proteoliposomes
[3] = substrate: O=c1ccn([C@@H]2O[C@H](COP(=O)(O)OP(=O)(O)OP(=O)(O)O)[C@@H](O)[C@H]2O)c(=O)[nH]1; format: biochemical, Saccharomyces cerevisiae; details: labelled compound, purified transporter in proteoliposomes

B1: ScENT1 (FUN26) (Saccharomyces cerevisiae S288C) (protein)
chain: MSTSADTDTIKKPILAVPEPALADTHSEEISRSGEEHESENNEHSDEEGDNYSEREQSVSTEPLDTLPLRKKLKNLSYITFFAIGIGLLWPWNCILSASQYFKHDIFKDTSIWAKIFTSSMMSFSTISSMLFNIYLAKRQYKYSRRVINGLVWEIIVFTVMCFFTILHFLLPKWFNFMFIMMLVVISSMGTAMTQNGIMAIANVFGSEYSQGVMVGQAVAGVLPSLVLFALAFIENSSVSTTGGILLYFFTTTLVVTICVVMFSVSKISRKVNENWNVEDGHITDVLLGSLRSNEEEIRIVGRIDQMEDEDHRRTNGTRDDNDEGEELQLKVPFEVLFAKLKYLVLSIFTTFVVTLVFPVFASATYVTGLPLSNAQYIPLIFTLWNLGDLYGRVIADWPMFRDQKFTPRKTFIYSLLRVAAIPLFLMFTAITSSSSGDEEHNGSVIVDLCYMLLQFLFGVTNGHVISMSFMKVPEQLDNDDEKEAAGGFTNIFVSTGLALGSIISYVFVFIIDFIIR
notes: full-length, poly-His tagged (TALON, SEC), overexpressed in S. cerevisiae W303-delta-pep4, DDM-solubilised, reconstituted in proteoliposomes
Km [1]: 0.195 µM | Km [2]: 0.327 µM

B2: ScENT1 (FUN26) (Saccharomyces cerevisiae S288C; F249I) (protein)
chain: B1 chain with F249I
notes: as for B1
Km [1]: 0.452 µM | Km [3]: 0.13 µM

B3: ScENT1 (FUN26) (Saccharomyces cerevisiae S288C; L390A) (protein)
chain: B1 chain with L390A
notes: as for B1
Km ([3]; extrapolated beyond tested concentrations, not saturated): 2.92 µM | Km [2]: 0.215 µM
